Data: the RNAGym collection of RNA variant scans (doi:10.1073/pnas.2313332121)

B1: TPR t1 (parent)
chain: GACCAAUCUGCCCUCAGAGCUCGAGAACAUCUUCGGAUGCAGAGGAGGCAGGCUUCGGUGGCGCGAUAGCGCCAACGUCCUCAACCUCCAAUGCAUCCCACCACAUGAUGAUGCCUGAAGAGCCUUGGUUUUUUG

Variants of: B1
Test: polymerase ribozyme fitness, log enrichment relative to wild type (log ratio); higher = more active; in vitro selection for triplet polymerase activity
Outline: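 Streptavidin-bead capture of gel-excised extended constructs, followed by RT-PCR, closed a single triplicate in vitro selection round. That round began by annealing PCR-built, transcribed mutant libraries of each subunit of a heterodimeric triplet polymerase ribozyme with a biotinylated primer, the partner subunit and triplets, then incubating them frozen at −7 °C. After Illumina sequencing of inputs and outputs, genotypes needed ≥10 input reads and ≥1 read per output. Fitness is the base-2 logarithm of genotype enrichment over wild-type enrichment, using inverse-variance-weighted replicate averages.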

Variant	polymerase ribozyme fitness (log ratio)
U54C G58A U92C	-0.614
C53U U54C A90G G122A	-0.961
U54C U59C C94U A111G G128A U131A	-3.64
C53U G57U	0.599
C53A G63U A74U C102G A103C A111G G117C	-6.88
C53G U125C	-2.29
U54A U59A G60C U106A C124A G128U	-0.601
U54A C70G A118G U133A G135U	-2.84
C53U C123A	1.2
C53G C79U	-1.64
C53U G63A C102A A103U	-7.55
U54C C82U A83C C115G G117A U129C	-4.19
U54G C115U	-0.94
U54G C82A C94G C124U	0.658
U54G G113C U126C	-3.09
U54G C82A G120U	-0.425
U54G U59C	-1.85
U54C U87A	0.213
U54A G58C C64U G110C	-5.03
U54A C64U C72U	0.146
C53G U54G G63C	-3.77

Variant	polymerase ribozyme fitness (log ratio)
U54G U55G C73A C102G G110U G120C	-7.7
C53U C76U	-0.497
U54C U59C A119G	1.11
C53U G71U U92A A119U C124U	-2.62
U54A C62A	-0.751
U54A C62U	-1.02
C53U C79G G113C	-3.6
U54C G61A U81A U96A	-1.36
C53U C62U U125A G128A U130A	-3.39
C53U G57U C101A U109G	-6.08
C53G U78C C114U U132A	-2.19
U54A G63A C73G	-6.66
U54A G61U U96C C99A	-5.82
C53U A91C G120C U133C G135U	-0.968
U54C G110A	-1.29
C53G C72A U81A G120C C123G	-1.65
C53U A68G	-2.76
U54G G57A C72G C114U	-5.48
C53G C70U C86U A119G	-0.0477
U54G G122A G128C	-2.84
C53U C97G	-4.59

Variant	polymerase ribozyme fitness (log ratio)
C53G G128C	-2.03
C53G C79U G122A	-3.43
C53U C89U G135C	-0.361
C53U C88U	0.129
C53G C72G	0.577
C53G U112C	0.934
U54G G120A	-0.587
U54A C72A C73U A91C C115U U129A	-4.31
U54G U55G C73U C102G G110U G120C	-6.74
C53U U87A	-0.467
U54G U87C C115G	-1.72
U54A U96A G113C C123U U126A	-4.27
C53U C64U A83G	-0.811
U54A U59A C80A C82G C123U	-2.88
U54A U87A	-2.57
C53G C72G C123U	0.978
C53G U112G C114A G135U	-5.63
C53U C72G	-0.46
C53U C72U	-0.842
C53U C72A	0.143
U54A G120A	0.0705

Variant	polymerase ribozyme fitness (log ratio)
C53U A84U U126C	-1.72
C53G G110A	-1.16
U54C C97A	-5.83
C53A U59C	0.311
U54C G69A U112C	-0.483
U54G A121G	1.62
U54A G110A C115G	-4.1
C53U G117U	-2.22
C53U G117C	-3.1
U54A C73A C88A	-0.61
U54A U55A A74G	-0.235
U54A A105U	-1.84
C53A G69U C88G U112A G122A U133C	1.96
U54G C72U U129C	-0.965
C53G A74G	-1.52
U54G G93U A95C C101A G120A	-2.9
C53G C56G C73A A84C	-2.01
U54G C56A	-1.48
C53G A90C	-2.02
C53A G71U	-1.5
